Laboratory results published in paper PMC9473612.

Molecular target: EB1-mScarlet (UniProt Q9XZ57)
Assay: co-immunoprecipitation (mNeongreen-trap) with immunoblot quantification
Conditions: S2 cells overexpressing the constructs; n = 3 independent replicates; parent: est. 100; read off a plot

UniProt Q9XZ57, sequence (Q9XZ57 entry or part of it): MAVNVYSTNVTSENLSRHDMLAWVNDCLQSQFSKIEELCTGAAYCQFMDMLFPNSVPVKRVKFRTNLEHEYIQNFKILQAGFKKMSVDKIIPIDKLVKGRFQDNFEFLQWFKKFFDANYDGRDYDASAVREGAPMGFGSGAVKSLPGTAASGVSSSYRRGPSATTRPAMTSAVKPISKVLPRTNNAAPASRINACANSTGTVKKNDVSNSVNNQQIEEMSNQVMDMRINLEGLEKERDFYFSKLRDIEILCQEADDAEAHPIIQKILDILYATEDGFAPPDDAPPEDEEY

percent of parent (% relative to WT) | Substance
76 | mNeongreen RhoGEF2 (1–619), wild type 7A (seven serines proximal to the SKIP motif changed to A; residue numbers not printed)
56 | mNeongreen RhoGEF2 (1–619), wild type 7E (seven serines proximal to the SKIP motif changed to E; residue numbers not printed)
78 | mNeongreen RhoGEF2 (1–619), wild type SKIP→SKNN (I→N; P→N in the SxIP motif; residue numbers not printed)
